We go through 19 sequences from the DeepSol protein solubility set.

The data set can be described thus: soluble on expression in E. coli; label from the status in PepcDB or PDB records.
“MGSDKIHHHHHHMLGLPGEMQYVPGIHSPNEGPRPMTIQRKQTREVRIGKVRIGGANPVVVQSMTNTDTRDVEQTVEQIRQLQEAGCEIVRLAVLNEDAAWAIKPIRSQVSVPLVADIHFDHRLAVSALEAGVDALRINPGNIGTRAAVDRVVDAAKAHNAVIRIGVNSGSLETDLIDQYGGPTPEAMVESAFRHIRMLEDRNFGDIKVSLKSSSVSRCIEAYTLLSAKCDYPLHIGVTEAGTVLRGSIKSAVGLGVLLWQGIGDTLRVSLTSDPVAEMAVAWEILRSLGLRSRGPEIIACPTCGRCEIGLIALAEEVERRLEGETESFKVAVMGCVVNGPGEAREADLGIAGGRDKGIIFRKGEIVRTVKGGSNLLAAFMEELDTFLAHRRAERKDD”: the “soluble on expression in E. coli” value was “not soluble”. The same measure for “MGSDKIHHHHHHMAVNRFRLENGKEELALYQIQLLKDQSHNENEEDKVSSSSFRQRILGNLLQPPNERPELPSGLYVLGLTGISGSGKSSVAQRLKNLGAYIIDSDHLGHRAYAPGGPAYQPVVEAFGTDILHKDGTINRKVLGSRVFGNKKQMKILTDIVWPVIAKLAREEMDVAVAKGKTLCVIDAAMLLEAGWQSMVHEVWTVVIPETEAVRRIVERDGLSEAAAQSRLQSQMSGQQLVEQSNVVLSTLWESHVTQSQVEKAWNLLQKRLPKAYQTRN”: “soluble”. The same measure for “MSLQEWTKEDSLRLRKLLDSDQELNLNQDAVRQIDFGSAVGTPRMSVEKKWMLPDESLPEALPKPKVVLSLMPYKANTPYNWDPVFQKKIRMDKNTWRGDPHYEMRHQRSYSNWAHNPMAGGVRKSLEEIRASGVRFRQLSERANGMMVNSVVMDSPIPLFGGSGVYINGGTIGGLDLMAVFTKNFWDKKGKERRERTLEVLRTYGDSTTVLINRPIEQIAREGHHHHHH”: “soluble”. Regarding “MYYGFDIGGTKIALGVFDSTRRLQWEKRVPTPHTSYSAFLDAVCELVEEADQRFGVKGSVGIGIPGMPETEDGTLYAANVPAASGKPLRADLSARLDRDVRLDNDANCFALSEAWDDEFTQYPLVMGLILGTGVGGGLVLNGKPITGQSYITGEFGHMRLPVDALTLMGFDFPLRRCGCGQMGCIENYLSGRGFAWLYQHYYDQSLQAPEIIALWEQGDEQAHAHVERYLDLLAVCLGNILTIVDPDLLVIGGGLSNFTAITTQLAERLPRHLLPVARAPRIERARHGDAGGMRGAAFLHLTD”, the “soluble on expression in E. coli” value was “soluble”. To “MAASAWCCLRCCRDGGTGHIPLKEMPAVQLDTQHMGTDVVIVKNGRRICGTGGCLASAPLHQNKSYFEFKIQSTGIWGIGVATQKVNLNQIPLGRDMHSLVMRNDGALYHNNEEKNRLPANSLPQEGDVVGITYDHVELNVYLNGKNMHCPASGIRGTVYPVVYVDDSAILDCQFSEFYHTPPPGFEKILFEQQIF” belongs “soluble”; to “MGSDKIHHHHHHMIKIKRGLDLPISGAPEQRIEAARPVRSVALIGFDYHGMKPTMAVQVGDRVKLGQVLFTDKKNPSVSYTAPGAGVVSAIHRGEKRVLQSVVIDLDGDEQLEFARYPADKLATLSAEQVRDNLLQSGLWTALRTRPFSKVPDPESSPSSIFVTAIDTQPLAADPQVVIAEQGEAFQAGLTVLGRLARVFLCKAEGVSLPGEALSGVTAQAFSGPHPAGLPGTHIHFLDPVGAGKSVWNLNYQDVIAIGKLFTTGQLWTERVIALAGPVVEKPRLVRTRLGANLDELAAGQLQPGNNRLISGSVLGGRTAHGAYAYLGRYHLQLSCLKEGDQREFLHYLRAGVEKHSLLNVFVSRLLGGKRFAFTTSTNGSPRAMVPVGNYEAVMPLDILPTQLLRYLIVGDTEMAQKLGALELDEEDLALCSYVCAGKYEYGPILRDNLARIEQEG”, “not soluble”; to “MYNSATVIYQNLLKSTPKKASEYYYYLGDICWRKEKTDSAKYYFMEGIKTDETYAMNYVGIGIITMKSNATEGQRSFDKALQMTSQKNSQVLNAIGEYYILEADKAELPKGIALLKKSTEIDAKNAMSWILLGDAYGKQAEGSKQAESYGKAANLFHSVPLLKMKYGKMYAAARNKDLSIKYYNEGLAADPTYGPIYRELGDLYNRFRQYDLAIQNYKKYLTYIDSNDDVEFRYADFLFKNNNYAEAIEVFNKLEAKKYNSPYIYNRRAVCYYELAKYDLAQKDIETYFSKVNATKAKLEHHHHHH”, “not soluble”.

Regarding “MAHHHHHHMEPFTWLPAERYFHPLLNSIGAYQRYTYSLRAVCDAQRQKLLPGGDIEQNPGPIAVLQMNVSCLTPSKLATLMAQGADIIAIQETWKSSEQIASMHTGDHVLHAQSRIGKGSGVAVLVRKTLRSKRVPLTIPQHDTSLEVVVVQVALDQNRDLIVASTYMRPPPQVTQSFRRLVNCLPASSPLLLCGDFNMHHPQWEPFLESSPSEVAAEFLELCTDAGLTLVNTPGDITYARGTRERSCIDLTWSKHLTVSDCSASVSPLSDHYMLTFTLHQAFMDTIPSAPPSAPRTFYS”, the “soluble on expression in E. coli” value is “not soluble”. For “MELIDKFITLHDQLRKDLNLASLCISKAKTTHGIGLFSVNSVDTHDLEPSIRLDTKNGKFVLLKNSENEEEKNDKKNKKKKDENKSEKKNSGESEDVEEAKKTFSGQFRPFGVLEPAAAKDARKIYRNSIQTILDLVSTQQSILAKSRQLVEDC”, the “soluble on expression in E. coli” value is “not soluble”. To “MAHHHHHHMLRWTSRYLCASAAAAAGPEVHRDVEEFAVVIVGGGPSGLSAAIRLKQLAGDQRDSFRVGLVEKGSEIGAHTLSGACVEPHGLDELLPGWREQEGSVLSSMTPVTSDAFHVLIGPSRSVKVPWLPSTLHNRGNYITSLGGICKWLGEQAEALGVEIYPGFAAADVVVDEATGAVTGVQLNDRGVDKSGRRTAQYEPGMIFRAKQTIFAEGCRGSCTKQLEKRFGLRTADNPQTFGLGIKEVWEVPKERHHPGTVMHTVGWPTTDKGHDNTYGGAFLYHYGDGLISCGYVVGLDYSNPYCRPYMEMQKWKTHDLIRGQLEGGRPILYGARTLVEGGFSALPKLHFPGGVLAGDCAGFLNLPKIKGTHTAMKSGMLAAEAVYEDAFKGGKEEAASGVECKSYDDCFRSSWLYKELYTVRNVRQSFYKSFKWGMLYTGITSLLLHGREPWTLKHTTPDNLSLKPAKECVEIKYPKPDGTLTFDLLTNHSRSGTAHNADQPCHLRLKDSKVAEEVNLKAYAGPEARFCPAGVYEFVNDKLVINAQNCLHCKACDIKDPTQNINWTVPEGGGGPNYQAQM” belongs “not soluble”; to “MTFAWGRGSHGGAGMRIVQITDTHFSPTKAHFNGNWAPLAAWIEQSGADLVIHTGDLSVDGADRDDDIAFCMDLMREISAPMLLVPGNHDVGHLPGSLQPVNAGRLERWRRLVGPDYWMEDAGSWRLIGLDSLLMGFDDAEEEAQFDWLRTVLESRGGRRVALFAHKPLFVDAPGEGDTGYWSVRPAQRQRLYDLIATHDVALFASGHLHRAWQGKYENTSLVWGPSAAFVVGDMERDMPGERLLGAVIHQFSDTVTSEIVAIPGMTAYVLDDVVAEVYPHEAHKARKRVASLEHHHHHH”, “not soluble”; to “MRSLLLLALVSASAYASFDKIKDSIQNPLARGFGDDIAWVKWEDAIETALDTDKPIFLLIHKSWCHACKALKKTFQQSNAKKAFKKLSEHFVMVNTEDDDEPFEEEYRPDGKYIPRLLFLDKNGDLLQEFKNKKAEYKNYAYYYSSPADILNSMKDVLKHFGVDIPEAKRGDKLKPKKPEGKKKEL”, “not soluble”. The same measure for “GPISEFPVDFHYGVRVDVTLLSKIRRVNEHIKSATKTGVVQVHGSACTPTLSVLSSVGTAGVLGMRIKNALTPLVGHTEGSGDVSFSFRNTSVGSGFTHTRELFGANVLDAGIAFYRKGEACDTGAQPQFVRTTISYGDNLTSTVHKSVVDQKGILPFHDRMEAGGRTTRLMLCGKTGAFLLKWLRQQKTKEDQTVTVSVSETLSIVTFSLGGVSKIIDFKPETKPVSGWDGLKGKKSVDVGVVHTDALSRVSLESLIAALRMCKVPGWFTPGLIWHSNEILEVEGVPTGCQSGDVKLSVLLLEVNRSV”: “soluble”. For the sequence “MELRNTKLEQLFYIYHRNLKYRCPMQYLTKRGFNLQDLLSVGGGLAYLGEKQWLNLSLYNFNNQLVGFLSRKVGFEKKFLYLPINKPPSKSESFLGLKHLPTET”, the “soluble on expression in E. coli” value is reported as “not soluble”. For “MLDRPHHTTADIIARCEALFSDLSFTAAREWKAAEPGRIVVGFLPYYAPRELVHAAGGLPLGIFGGGDQLEVIHGDAYYQSYICRIPRSTIELGVSGRLDFVDGMMFPSICDVIRNLSGMWKLMFPSKGARYIDLPHNFDDDLGGEFYVSELRETCEWLSTLTGKPITSDAIRASIAVFNDNRRLIRALYQLRADEPWNVPSSELYLLLRAGMVIPVEEHNQMLADYLAAVRLQQRPIKDNSRVVICGMFCEQPPLNLIKSIELSGCYIVDDDFILVTRWENSDVALDGDPLSNLASAYLHDSKSTPPKYEPDEAKKGLYLVDSVRKNRAEGVIFAMTSFCDPGLLERPMLQAVLKSHGIPQIAFKYAENSGQMQPIREQAGTFADSIKLWSGA”, the “soluble on expression in E. coli” value is reported as “not soluble”. To “GPGSMLSQYLRKRVSVVTVDGRNLVGVLHAADQLLNIVLTSCVERTGAPYDFDDGAAEEDNGSVVDEGVSTAFSGGDTASGALPPLEEVHLGVMMLRGADVVSIAAIDVYEEAGTNVKDWRGRDMPPATAVARSW” belongs “soluble”. As to “MFSAGHKIKGTVVLMPKNELEVNPDGSAVDNLNAFLGRSVSLQLISATKADAHGKGKVGKDTFLEGINTSLPTLGAGESAFNIHFEWDGSMGIPGAFYIKNYMQVEFFLKSLTLEAISNQGTIRFVCNSWVYNTKLYKSVRIFFANHTYVPSETPAPLVSYREEELKSLRGNGTGERKEYDRIYDYDVYNDLGNPDKSEKLARPVLGGSSTFPYPRRGRTGRGPTVTDPNTEKQGEVFYVPRDENLGHLKSKDALEIGTKSLSQIVQPAFESAFDLKSTPIEFHSFQDVHDLYEGGIKLPRDVISTIIPLPVIKELYRTDGQHILKFPQPHVVQVSQSAWMTDEEFAREMIAGVNPCVIRGLEEFPPKSNLDPAIYGDQSSKITADSLDLDGYTMDEALGSRRLFMLDYHDIFMPYVRQINQLNSAKTYATRTILFLREDGTLKPVAIELSLPHSAGDLSAAVSQVVLPAKEGVESTIWLLAKAYVIVNDSCYHQLMSHWLNTHAAMEPFVIATHRHLSVLHPIYKLLTPHYRNNMNINALARQSLINANGIIETTFLPSKYSVEMSSAVYKNWVFTDQALPADLIKRGVAIKDPSTPHGVRLLIEDYPYAADGLEIWAAIKTWVQEYVPLYYARDDDVKNDSELQHWWKEAVEKGHGDLKDKPWWPKLQTLEDLVEVCLIIIWIASALHAAVNFGEYPYGGLIMNRPTASRRLLPEKGTPEYEEMINNHEKAYLRTITSKLPTLISLSVIEILSTHASDEVYLGQRDNPHWTSDSKALQAFQKFGNKLKEIEEKLVRRNNDPSLQGNRLGPVQLPYTLLYPSSEEGLTFRGIPNSISI”, the “soluble on expression in E. coli” value is reported as “soluble”. To “MKLQLALDELTLPEAMVFMDKVVDDVDIIEVGTPFLIREGVNAIKAIKEKYPHKEVLADAKIMDGGHFESQLLFDAGADYVTVLGVTDVLTIQSCIRAAKEAGKQVVVDMICVDDLPARVRLLEEAGADMLAVHTGTDQQAAGRKPIDDLITMLKVRRKARIAVAGGISSQTVKDYALLGPDVVIVGSAITHAADPAGEARKISQVLLQHH” belongs “soluble”.

Turning to “MGHHHHHHSHMAAPEAEVLSSAAVPDLEWYEKSEETHASQIELLETSSTQEPLNASEAFCPRDCMVPVVFPGPVSQEGCCQFTCELLKHIMYQRQQLPLPYEQLKHFYRKPSPQAEEMLKKKPRATTEVSSRKCQQALAELESVLSHLEDFFARTLVPRVLILLGGNALSPKEFYELDLSLLAPYSVDQSLSTAACLRRLFRAIFMADAFSELQAPPLMGTVVMAQGHRNCGEDWFRPKLNYRVPSRGHKLTVTLSCGRPSIRTTAWEDYIWFQAPVTFKGFRE”, the “soluble on expression in E. coli” value is reported as “not soluble”.
